Here are results for six molecules from article PMC6947424, “New Targeted Gold Nanorods for the Treatment of Glioblastoma by Photodynamic Therapy” (Journal of Clinical Medicine, 2019).

As a reminder, the IC50 is the concentration that gives 50% inhibition.

For data set [1] the following is noted: in EtOH; ref [73]; cited from earlier work. How it is done: (§1) Fluorescence quantum yields (Φf) were determined using a tetraphenyl porphyrin (TPP) solution as the fluorescence standard (Φf = 0.11 in toluene, taking into account solvent refractive index and absorption efficiencies. For the direct determination of ^1O2 quantum yield (ΦΔ), excitation was performed with a Xe-arc, the light was separated in a SPEX 1680, 0.22 µm double monochromator. Detection at 1270 nm was carried out through a PTI S/N 1565 monochromator and the emission was monitored by a liquid nitrogen cooled Ge-detector (EO-817L, North Coast Scientific Co, OH, USA). Rose Bengal (R ...

The conditions of data set [2]: in toluene; ref [72]; cited from earlier work. How it is done:
as §1, with “... || These findings are also consistent with the Φf value of Pyro reported by other authors (Φf = 0.3 and in methanol). […] This property can serve in the ...” for “...”

A short description of a further data set: UV-vis absorption. The class given is physicochemical. As to conditions: ethanol, Soret band. The protocol: (§2) The setup and the protocol to evaluate the photophysical characterizations including the absorption, fluorescence, and singlet oxygen emission spectra in addition to the fluorescence and singlet oxygen lifetimes have been previously described by our team. The absorption spectra were recorded on a UV-3600 UV–vis double beam spectrophotometer (Shimadzu, Marne La Vallée, France) in the wavelength range of 200-800 nm. The measurements were performed on the molecules dispersed in ethanol in quartz cuvettes with an optical path of 10 mm. The fluorescence spectra were recorded on a Horiba Jobin Yvon Fluorolog-3 (FL3-222) spectrofluorimeter equipped with a 450W xenon lamp, a thermostated cell compartment (25 °C), a R928 (Hamamatsu, Massy, France) UV–vis photomultiplier and a liquid nitrogen cooled InGaAs infrared detector (DSS-16A020L Electro-Optical System Inc., Phoenixville, PA, USA). The excitation spectrometer used is a SPEX double grating monochromator (1200 grooves per mm blazed at 330 nm). The fluorescence was measured using the UV–vis detector through a SPEX double grating monochromator (600 grooves per mm blazed at 500 nm). The singlet oxygen production was measured using the IR detector through a SPEX double grating monochromator (600 grooves per mm blazed at 1 μm).
The photophysical properties at the different synthetic stages of the hybrid AuNRs@PEG-MI-K(Pyro)DKPPR-OH, including the peptide derivatives as intermediates, were studied and compared to that of free Pyro. These properties include the UV-vis absorption, the florescence emission (quantum yield (Φf) and lifetime (τf)) and the ^1O2 production (quantum yield (ΦΔ) and lifetime (τΔ)). To determine these properties, the optical density (OD) of the Soret band of the Pyro component (412 nm) was adjusted at about 0.2. Controls, such as TPP dissolved in toluene, as a standard for fluorescence emission, and RB dissolved in ethanol, as a standard for ^1O2 production, were used. Ethanol was chosen to dissolve the studied molecules since it is a convenient solvent for the detection of fluorescence and ^1O2 emission. […]

Data set [3] can be described thus: Fluorescence emission (quantum yield and lifetime). The class given is physicochemical. As to conditions: ethanol. The protocol:
as §2
as §1, with “(RB) was chosen as a reference solution because of its high ^1O2 quantum yield in EtOH (ΦΔ = 0.68). The absorbance value at the excitation wavelengths (412 nm) of both the reference and the sample solutions were set to approximately 0.2 by dilution. The samples were all prepared in ethanol.” for “(R ...”
The quantum yield of fluorescence is determined by the equation (1):(1) Φf=Φf0×If/If0×[…]×(n/n0)^2 where Φf and Φf0, If and If0, DO and DO0, n and n0 are the quantum yields, intensities, optical densities and refraction indices of the sample and reference, respectively.
(§3) Fluorescence lifetimes were measured by Time-Correlated Single Photon Counting (TCSPC) using for excitation a pulsed laser diode LDH-P-C-405 coupled with a PDL 800-D driver (both from PicoQuant GmbH, Berlin, Germany) emitting at 408 nm (FWHM < 70 ps, 1 MHz) and an SPCM-AQR-15 avalanche photodiode (EG & G, Vaudreuil, Canada) coupled with a 650 nm (±10 nm) interference long-wave pass filter as the detection system. The acquisition system was a PicoHarp 300 module with a PHR-800 four-channel router (both from PicoQuant GmbH, Berlin, Germany). Fluorescence decays were recorded using the single photon counting method (four optical faced quartz cells for pure products in ethanol). Data were collected, and up to 1000 counts were accumulated in the maximum channel and analyzed using Fluofit TCSPC software (PicoQuant GmbH, Berlin, Germany) based on iterative reconvolution using a Levensberg-Marquandt algorithm. Singlet oxygen lifetime measurements have been performed on a TEMPRO-01 spectrophotometer (Horiba Jobin Yvon, Palaiseau, France). The apparatus was composed of a pulsed diode excitation source SpectraLED-415 emitting at 415 nm, a cuvette compartment, a Seya–Namioka type emission monochromator (600–2000 nm), and an H10330-45 near-infrared photomultiplier tube with a thermoelectric cooler (Hamamatsu, Massy, France) as the detection system. The system was monitored by a single photon counting controller FluoroHub-B and the software DataStation and DAS6 (Horiba Jobin Yvon, Palaiseau, France). […]

A short description of data set [4]: Singlet oxygen production (quantum yield and lifetime). The class given is physicochemical. The conditions noted are these: ethanol. The protocol: as §2
as §1, with “(RB) was chosen as a reference solution because of its high ^1O2 quantum yield in EtOH (ΦΔ = 0.68). The absorbance value at the excitation wavelengths (412 nm) of both the reference and the sample solutions were set to approximately 0.2 by dilution. The samples were all prepared in ethanol.” for “(R ...”
The quantum yield of singlet oxygen production is determined by the equation (2):(2) ΦΔ=ΦΔ0×I/I0×[…] where ΦΔ and ΦΔ0, I and I0, DO and DO0 are the luminescence quantum yields of singlet oxygen, the luminescence intensities and the optical densities of the sample and reference, respectively.
as §3

In data set [5] the target is T1, recombinant NRP-1 protein (neuropilin-1) (UniProt O14786 22-856).
T1 construct: Neuropilin-1 (NRP-1), recombinant protein bought from Bio-Techne; Coated on the ELISA plate; also called neuropilin-1 receptor; NPR-1; source: bought: Bio-Techne
T1 sequence (looked up): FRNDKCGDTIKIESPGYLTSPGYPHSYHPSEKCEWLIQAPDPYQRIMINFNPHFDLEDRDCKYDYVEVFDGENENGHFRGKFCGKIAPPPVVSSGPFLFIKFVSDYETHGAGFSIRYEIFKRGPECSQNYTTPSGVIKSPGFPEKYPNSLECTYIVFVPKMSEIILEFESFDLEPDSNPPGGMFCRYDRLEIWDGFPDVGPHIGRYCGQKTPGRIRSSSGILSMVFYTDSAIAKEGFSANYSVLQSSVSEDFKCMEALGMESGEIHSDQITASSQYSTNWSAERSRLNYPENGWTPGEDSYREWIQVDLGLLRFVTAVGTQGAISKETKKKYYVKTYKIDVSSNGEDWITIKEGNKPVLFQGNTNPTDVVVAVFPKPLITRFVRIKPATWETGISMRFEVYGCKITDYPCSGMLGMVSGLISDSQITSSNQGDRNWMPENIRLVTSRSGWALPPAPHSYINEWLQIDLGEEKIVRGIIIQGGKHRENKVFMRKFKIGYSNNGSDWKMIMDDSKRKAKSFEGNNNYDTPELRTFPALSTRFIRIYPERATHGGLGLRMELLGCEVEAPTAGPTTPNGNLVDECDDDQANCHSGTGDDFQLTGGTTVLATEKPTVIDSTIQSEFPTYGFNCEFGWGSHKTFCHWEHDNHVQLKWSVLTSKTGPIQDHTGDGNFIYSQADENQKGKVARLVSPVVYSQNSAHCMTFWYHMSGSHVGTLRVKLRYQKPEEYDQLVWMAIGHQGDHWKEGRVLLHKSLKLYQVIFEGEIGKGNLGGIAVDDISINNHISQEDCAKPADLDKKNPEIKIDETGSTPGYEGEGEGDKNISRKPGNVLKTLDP
As to the kind of experiment: ELISA; competition; NRP-1 coated on 96 well plate at 2 μg/mL in PBS overnight at room temperature, blocked with PBS 0.5 % BSA; 5 ng/mL biotinylated VEGF-A165 in blocking buffer with 2 μg/mL heparin, with different peptide concentrations of competitor, 2 h at room temperature; streptavidin-HRP, OD 450 nm. The conditions noted are these: both partners purified. A general note: An ELISA detects its analyte on a solid surface through an enzyme-linked reagent.

No end group written: not given here. *: point of attachment. Pyropheophorbide(a) = C=Cc1c(C)c2cc3nc(c4c5[nH]c(cc6nc(cc1[nH]2)C(C)=C6CC)c(C)c5C(=O)C4)[C@@H](CCC(=O)*)[C@@H]3C; Hexanoyl(6-maleimido) = O=C1C=CC(=O)N1CCCCCC(=O)*

On to `O=C([O-])c1c(Cl)c(Cl)c(Cl)c(Cl)c1-c1c2cc(I)c(=O)c(I)c-2oc2c(I)c([O-])c(I)cc12.[Na+].[Na+]` [Rose Bengal], for which, in data set [1], the “ΦΔ of singlet oxygen reference” value is listed as 0.68.

Take `C1=Cc2nc1c(-c1ccccc1)c1nc(c(-c3ccccc3)c3ccc([nH]3)c(-c3ccccc3)c3ccc([nH]3)c2-c2ccccc2)C=C1` [TPP, tetraphenyl porphyrin]: in data set [2], the “Φf of fluorescence standard” value is on record as 0.11.

Regarding “H-K(Pyro)DKPPR-OH [DKPPR peptide extended with Pyro-bearing lysine, free N-terminus]”, the λmax in “UV-vis absorption” is 412 nm. The “τf (fluorescence lifetime)” value in data set [3] (TCSPC, single exponential fit) was 6.8 ns. Also, the “Φf (fluorescence quantum yield)” value in data set [3] (excitation 412 nm, TPP in toluene as standard, 25 °C) was 0.34. In addition, in data set [4], the “τΔ (singlet oxygen lifetime)” value stood at 14 μs. In addition, in data set [4] (excitation 412 nm, detection 1270 nm, Rose Bengal as reference), the “ΦΔ (singlet oxygen quantum yield)” value is listed as 0.44.

B1: AuNRs@PEG-MI-K(Pyro)DKPPR-OH (other)
peptide: K(Pyropheophorbide(a))DKPPR-OH
modifications: not fully specified (N-terminus); printed as AuNRs@PEG-MI-K(Pyro)DKPPR-OH; also: MI joined by thioether to AuNRs@PEG-SH
notes: KDKPPR peptide of m4, grafted through its N-terminal maleimide onto the surface of PEGylated gold nanorods; Many peptide copies on each nanorod (multivalent); 1 mg/mL of the nanorods holds 257.7 µM of peptide; also called hybrid AuNRs; functionalized AuNRs
With B1, the IC50 in data set [5] came to 1100 nM.

B2: MI-K(Pyro)DKPPR-OH (peptide)
peptide: {Hexanoyl(6-maleimido)}-K(Pyropheophorbide(a))DKPPR-OH
SMILES: C=Cc1c(C)c2cc3nc(c4c5[nH]c(cc6nc(cc1[nH]2)C(C)=C6CC)c(C)c5C(=O)C4)[C@@H](CCC(=O)NCCCC[C@H](NC(=O)CCCCCN1C(=O)C=CC1=O)C(=O)N[C@@H](CC(=O)O)C(=O)N[C@@H](CCCCN)C(=O)N1CCC[C@H]1C(=O)N1CCC[C@H]1C(=O)N[C@@H](CCCNC(=N)N)C(=O)O)[C@@H]3C
notes: KDKPPR peptide; first lysine bears Pyro on its side chain and MI on its alpha-amine; free C-terminal acid; also called PP-PS conjugate; peptide-photosensitizer conjugate; source: synthetic peptide (Fmoc/tBu solid phase, preparative HPLC)
As to B2, in data set [5], the IC50 was determined as 1500 nM.

B3: H-KDKPPR-OH peptide (peptide)
peptide: H-KDKPPR-OH
notes: free peptide with free N-terminus (H-) and free C-terminal acid (-OH), developed by the authors' team to target NRP-1; also called free KDKPPR peptide; source: synthetic peptide
Turning to B3, the IC50 in data set [5] was 2000 nM.
